Assay results reported in publication PMC8217511 (2021).
Read-outs that look alike come from different tables or passages of the source.

B1: CrSAS-6_6HR, N-terminal domain and six heptad repeats of the coiled-coil of Chlamydomonas reinhardtii SAS-6 (domain or fragment)
chain: MPLLLDDGDPKAQTGFDLSTATTLFWRPVPVHVKQQDREDVLEELTFRILTGVAKQNHNLRILRIHISSDSDLFFLHTLEVSEEDFQSLKNDQGILVDFASFPGKIISLLEKCILAQPGDSPRFQAVLTIRGGESVFKIVEINDFKQLPHITLAFRPGNDSVVKQFLAFRLSEVKGTCHDLSDDLSRTRDDRDSMVAQLAQCRQQLAQLREQYDKHLLEVQAQAKT
B2: monobody MB_(CRS6)-15, purified (designed binder)
chain: GSVSSVPTKLEVVAATPTSLLISWDAPAVTVYLYVITYGETGGNSPVQEFEVPGSKSTATISGLKPGVDYTITVYASSKHSSRYASPISINYRT

Legend:
Assay in all cases: ITC
MBCRS6-12 = biological target: MBCRS6-12
MBCRS6-5 [1] = biological target: MBCRS6-5
MBCRS6-3 = biological target: MBCRS6-3
MBCRS6-2 = biological target: MBCRS6-2
MBCRS6-5 [2] = biological target: MBCRS6-5; remark: listed apart in the source
MBCRS6-4 = biological target: MBCRS6-4
MBCRS6-6 = biological target: MBCRS6-6
[3] = biological target: B1

Question: With B1 as the binder, how does the Kd (MBCRS6-12) read?
Answer: The Kd was 193 nM.

Question: What about the Kd (MBCRS6-5 [1]) of the same binder?
Answer: Its Kd is 31.1 nM.

Question: And the Kd (MBCRS6-3)?
Answer: The Kd was 369 nM.

Question: And the Kd (MBCRS6-2)?
Answer: Its Kd is 88.7 µM.

Question: What about the Kd (MBCRS6-5 [2]) of the same binder?
Answer: The Kd was 31 nM.

Question: And the Kd (MBCRS6-4)?
Answer: Its Kd is 316 nM.

Question: What about the Kd (MBCRS6-6) of the same binder?
Answer: The Kd was 570 nM.

Question: How did the Kd [3] turn out when B2 was run?
Answer: The Kd was 468 nM.
